Measured values taken from the nanobody polyreactivity screen of Harvey et al. (2022).

Assay: yeast display, Sf9 membrane polyspecificity reagent, FACS + sequencing; frameworks hold sequencing errors
Summary of the method: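 A synthetic nanobody library was expressed on Saccharomyces cerevisiae BJ5465 by galactose induction for 36–48 hours. The library was stained for 1 hour at 4 °C with 10% biotinylated, detergent-solubilized Sf9 membrane reagent and enriched with streptavidin microbeads before FACS. Low and high (top ~1%) gates were set on anti-HA fluorescence for expression and streptavidin fluorescence for reagent binding, and each polyreactivity label reflects the gate of origin.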

| Sequence | polyreactivity (PSR sort gate) |
| --- | --- |
| QVQLVESGGGLVQAGGSLRLSCAASGRIFYVYAMGWYRQAPGKERELVAAISRGGSTNYADSVKGRFTISRDNAKNTVYLQMNSLKPEDTAVYYCAASSLPHYSYRHSYLYEYWGQGTQVTVSS | low polyreactivity |
| QVQLVESGGGLVQAGGSLRLSCAASGRIFYVYTLGWYRQAPGKERELVAAITSGGSTNYADSVKGRFTISRDNAKNTVYLQMNSLKPEDTAVYFCAKKAWVIYNRKFSSGYDYWGQGTQVTVSS | low polyreactivity |
| QVQLVESGGGLVQAGGSLRLSCAASGRIFYVYTMGWYRQARGKERELVAAISWSGGSTHYADSVKGRFTISRDNAKNTVYLQMNSLKPEDTAVYYCNKGVLSRVAFEYWGQGTQVTVSS | low polyreactivity |
| QVQLVESGGGLVQAGGSLRLSCAASGRIFYWYAMGWYRKAPGKERELVAAIIWSGGSSYYADSVKGRFTISRDNAKNTVYLQMNSLKPEDTAVYYSAADRILEMGYWGQGTQVTVSS | low polyreactivity |
| QVQLVESGGGLVQAGGSLRLSCAASGRIFYWYARGWYRQAPGKERELVASISRRAGSTYYADSVKGRFTISRDNAKNTVYLQMHSLKPEDTAVYYCAAVGRFDRVFDYDYWGQGTQVTVSS | high polyreactivity |
| QVQLVESGGGLVQAGGSLRLSCAASGRIFYWYVMGWYRQAPGKERELVASISSGGGTNYADSVKGRFTISRDNAKNTVYLQMNSLKPEDTAVYYCAARAYPYYWTGQKQSRFGYWGQGTQVTVSS | high polyreactivity |
| QVQLVESGGGLVQAGGSLRLSCAASGRIFYYNAMGWFRQAPGQERELVAAITSGGSTNYADSVKGRFTISRDNAKNTVYLQMNSLTPEDTAVYYCNARRYGSPRSEVHYDYWGQGTQVTVSS | low polyreactivity |
| QVQLVESGGGLVQAGGSLRLSCAASGRIFYYNAMGWYRPAPGKVRELVAVMTGGGSTNYADSVKGRFTISRDNAKNTVYLQMNSLKPEDTAVYYCAARRAWGTKYHGYDYWGQGTQVTVSS | low polyreactivity |
| QVQLVESGGGLVQAGGSLRLSCAASGRIFYYNAMGWYRQAPGKERDLVAAITYSGTSTYYADSVKGRFTISRDNAKNTVYLQINSLKPEDTAVYYCAVDSTDQAPPTYDYWGQGTQVTVSS | low polyreactivity |
| QVQLVESGGGLVQAGGSLRLSCAASGRIFYYNAMGWYRQAPGKERELVAAISTRGTSTYYADSVKGRFTISRDNAKNTVYLQMNSLKPEDTAVYYCNRASGNWQSYLRYDYWGQGTQVTVSS | low polyreactivity |
| QVQLVESGGGLVQAGGSLRLSCAASGRIFYYNGMGWYRQAPGKERELVAAISSRGGSTYYADSVKGRFTISRDNAKNTVYLQMNSLKPEDTAVYYCAATLSDRYSWRPYGMYYWGQGTQVTVSS | high polyreactivity |
| QVQLVESGGGLVQAGGSLRLSCAASGRIFYYNSMGWYRQAPGKERELVAAIRRSGSRTYYADSVKGRFTISRDNAKNTVYFQMNSLIPEDTAVYYCAAKYASFGHHDSWGQGTQVTVSS | high polyreactivity |
| QVQLVESGGGLVQAGGSLRLSCAASGRIFYYNSMGWYRQAPGKERELVASITGSGGSTYYADSVKGRFTISRDNAKNTVYLQMNSLKPEDTAVYYFAKREYLYPFYYVAKYDYWGQGTQVTVSS | low polyreactivity |
| QVQLVESGGGLVQAGGSLRLSCAASGRIFYYNTMGWYRQAPGKARELVAAITTNGGSTYYADSVKGRFTISRDNAKNTVYLQMNSPKPEDTAVYYCNRDRYPYYYAYNYWGQGTQVTVSS | low polyreactivity |
| QVQLVESGGGLVQAGGSLRLSCAASGRIFYYTTMGWSRQAPGKERELVAAISVSGGSTYYADSVKGRFTISRDKAKNTVYLQRNSLKPEDTAVYYCNAKDWYFYRYDYWGQGTQVTVSS | low polyreactivity |
| QVQLVESGGGLVQAGGSLRLSCAASGRIFYYYAMGWYRQAPGKERELVADITWSGGSTYYADSVKGRFTISRDNAKNTVYLLRNSLKPEDTAVYYCNAVSFNYLLEYDYWGQGTQVTVSS | high polyreactivity |
| QVQLVESGGGLVQAGGSLRLSCAASGRIFYYYAMGWYRQAPRKERELVASINSGGSTYYADSVKGRFTISRDNAKNTVYLQMNSMKPEDTAVYYCAAGFQLVKGYLSGRAAYYYWGQGTQVTVSS | high polyreactivity |
| QVQLVESGGGLVQAGGSLRLSCAASGRIFYYYDMGWYRQAPGKERELVAAINYSGGSTYYADSVKGRFTISRDNAKNTVYLQMNSLKPEDTAVYYCAADGYYYYSYGTTDQDDYWGQGTQVTVSS | low polyreactivity |
| QVQLVESGGGLVQAGGSLRLSCAASGRIFYYYDMGWYRQAPGKERELVAAITYSDSSTYADSVKGRFTISRDNAKNTVYLQMNSLKPEDTAVYYCAADYVYPGVRLEMDYWGQGTQVTVSS | low polyreactivity |
| QVQLVESGGGLVQAGGSLRLSCAASGRIFYYYVMGWYRQAPGKERELVAVIDWSGGSTYYADSVKGRFTISRDNAKNTVYLQMNSLKPEDTAVYYCAKVWLNFSLAYEDYDYWGQGTQVTVSS | low polyreactivity |
| QVQLVESGGGLVQAGGSLRLSCAASGRIFYYYVMGWYRQAPGKERELVAVIDWSGGSTYYADSVKGRFTISRDNAKNTVYLQMNSLKPEDTGVYYCAKVWLKFSLAYEDYDYLGQGTQVTVSS | low polyreactivity |

| Sequence | polyreactivity (PSR sort gate) |
| --- | --- |
| QVQLVESGGGLVQAGGSLRLSCAASGRIGYYVMGWYRQAPGKERELVAAISRSGDSTYYADSVKGRFTISRDNAKNTVYLQMNSLKPEDTAVYYCAAASGWRYFYKYDYWGQGTQVTVSS | high polyreactivity |
| QVQLVESGGGLVQAGGSLRLSCAASGRIIANYAMGWYRQAPGKEREVVAGISSGGSTNYADSVKGRFTISRDNAKNPVYLQMNSLKPEDTAVYYCAKDPAYRVSKYDYWGQGTQVTVSS | low polyreactivity |
| QVQLVESGGGLVQAGGSLRLSCAASGRIIAYNTMGWNRQAHWKERDWVAAISSRGGRTYYADSVKGRFTISRDNAKNTVYLEMNSLKPEDTAVYYCAAKYYRYGDPDRYDYWGQGTQVTVSS | high polyreactivity |
| QVQLVESGGGLVQAGGSLRLSCAASGRIIAYYAMGWSRQAPGKERELVAAINWNGGSTYYADSVKGRFTISRDNAKNTVYLQMNSLKPEDTAVYYCNAGRTYTALNGDYWGQGTQVTLSS | high polyreactivity |
| QVQLVESGGGLVQAGGSLRLSCAASGRIIDLNAMGWYRQAPGKERQLVAAISYSGGRTFYADSVKGRFTISRDNAKNTVYLQMNSLKPEDTAVYYCNARYGKPAYQYGMDYWGQGTQVTVSS | low polyreactivity |
| QVQLVESGGGLVQAGGSLRLSCAASGRIIDYYTMGWDRQAPGKERELVATITIVGITNYADSVKGRFTISRDNAKNTVYLQMNSLKPEDTAVYYCAADRADFFVIRTIDPYDYWGQGTQVTVSS | low polyreactivity |
| QVQLVESGGGLVQAGGSLRLSCAASGRIIFAYTMGWYRQAPGKERELVAAISSSGSTYYADSVKGRFTISRDNAKNTVYLQMNSLKPEDTAVYYLRVQRRAYRYDYWGQGTQVTVTS | high polyreactivity |
| QVQLVESGGGLVQAGGSLRLSCAASGRIIGFNAMGWYRQAPGKERELVASIRTTGGSTRYADSVKGRFTISRDNAKNTVYLQMNSLKPEDTAVYYCAARSRLRYLYDYWGQVTQVTVSS | high polyreactivity |
| QVQLVESGGGLVQAGGSLRLSCAASGRIIGKNAMGWYRQAPGEERELVAAIRYNGGRTYYADSVKGRFTISRDNAKNTVYLQMNSLKPEDTAVYYCATRTYRVDPEFGYWGQGTQVTVSS | high polyreactivity |
| QVQLVESGGGLVQAGGSLRLSCAASGRIIGLYTMGWYRQAPGKERELVAAINIRGTRTYYADSVKGRFTISRDNAKNTVYLQMNSLKPEDTAVYYCAAASYRSGRYTFDYWGQGTQVTVSS | high polyreactivity |
| QVQLVESGGGLVQAGGSLRLSCAASGRIIGRYAMGWYRQAPGKERELVAGITIRGGSTYYADSVKGRFTISRDNAKNTVYLQMNSLKPEDTAVYYCAARHGSGFRYYPGHAGGYWGQGTQVTVSS | low polyreactivity |
| QVQLVESGGGLVQAGGSLRLSCAASGRIIGYNAMGWYRQAPGKERELVASIRYSGGSTYYADSVKGRFTISRDNAMNTVYLQMNSLKPEDTAVYYCATRVTYRRRFDYWGQGTQVTVSS | high polyreactivity |
| QVQLVESGGGLVQAGGSLRLSCAASGRIIGYYAMGWYRQAPGKERELVAAISRRGGSTYYADSVKGRFTISRDNAKNTVYLQMNSLKPEDTAVYYCATLTLESFSALYYWGQGTQVTVSS | low polyreactivity |
| QVQLVESGGGLVQAGGSLRLSCAASGRIIIRYAMGWYRQAPGKERELVAGISRRGGSTSYADSVKWRFTISRDNAKNTVYLQMNSLKPEDTAVYYCGADSQYKYDYWGQGTQVTVSS | high polyreactivity |
| QVQLVESGGGLVQAGGSLRLSCAASGRIIKRYAMGWYRQAPGKERELVAAISASGSSTYYADSVKGRFTISRDNAKNTVYLQMNSLKPEDTAVYYCAAWAYSPSASYDYWGQGTQVTVSS | high polyreactivity |
| QVQLVESGGGLVQAGGSLRLSCAASGRIINYYAMGWYRPAPGKERELVAGISWSGGSTSYADSVKGRFTISRDNAKNTVYLQMNSLKPEDTAVYYCAAGVFKAFYYWGQGTQVTVSS | low polyreactivity |
| QVQLVESGGGLVQAGGSLRLSCAASGRIIPKYAMGWYRQAPGKERELVAAISSSGGSTYYADSVKGRFTISRDNAKNTVYLQINSLKPEDTAVYYCNVDKATRYRYPGFDYWGQGTQVTVSS | high polyreactivity |
| QVQLVESGGGLVQAGGSLRLSCAASGRIIRINAMGWYRQAPGKERELVAAITRGGTTYADSVKGRFTISRDNAKNTVYLQMNSLKPEDTAVYYCNARTGRSPTGFRYWGQGTQVTVSS | high polyreactivity |
| QVQLVESGGGLVQAGGSLRLSCAASGRIIRWYAMGWYRQAPGKERELVAAISGSGGSTYYADSVKGRFTISRDNAKNTVYLQMNSLKPEDTAVYYCAAAYYRDSDRRYNYWGQGTQVTVSS | high polyreactivity |
| QVQLVESGGGLVQAGGSLRLSCAASGRIIRYYAMGWYRPAPGKERELVAGITTGGGSTYYADSVKGRFTISRDNAKNTVYLQMNSLKPEDTAVYYCAARYYTTYYWGQGTQVTVSS | high polyreactivity |
